Experimental data: PMC6066478, “Structural visualization of RNA polymerase III transcription machineries” (Cell Discovery, 2018)

Tests used:
[1] = target: T1, RNA polymerase III (17 subunits, incl. C160, C82/C34/C31, C53);Brf1N-TBPc-Brf1C chimera;Bdp1 (Saccharomyces cerevisiae;Saccharomyces …, UniProt P04051;P22276;P32349;P25441;P07703;P36121;P32910;P17890;P35718;P20434;P20435;P28 …, |internal_change|); experiment: cryo-EM; complex on EC scaffold, RNA not seen; 4.5 Å; EMD-7533; PIC assembled at room temperature; assembly buffer not given in the material; conditions: protein: native;recombinant;recombinant; tags: TAP tag on C53 C terminus (TEV-cleaved, calmodulin eluted);C-terminal 6xHis;C-terminal 6xHis; copies: 1;1;1;1;1;1;1;1;1;1;1;1;1;1;1;1;1;1;1; label: biotin 5' on strand 3; mismatched bubble +12 to +22 with RNA (strand 4); strands 2 and 3 both anneal to strand 1 (2-nt gap between them)
[2] = target: T1, RNA polymerase III (17 subunits, incl. …); experiment: cryo-EM; ITC; 4.1 Å; EMD-7530; PIC assembled at room temperature; assembly buffer not given in the material; conditions: protein: native;recombinant;recombinant; tags: TAP tag on C53 C terminus (TEV-cleaved, calmodulin eluted);C-terminal 6xHis;C-terminal 6xHis; copies: 1;1;1;1;1;1;1;1;1;1;1;1;1;1;1;1;1;1;1; label: biotin 5' on strand 3; mismatched bubble with RNA (strand 4, RNA written as printed); strands 2 and 3 both anneal to strand 1 (nick between them)
[3] = target: RNA polymerase III (17 subunits, incl. C160, C82/C34/C31, C53);Brf1N-TBPc-Brf1C chimera;Bdp1 Δ355-372 (Saccharomyces cerevisiae;Saccharomyces …, UniProt P04051;P22276;P32349;P25441;P07703;P36121;P32910;P17890;P35718;P20434;P20435;P28 …, |internal_change|del355-372); experiment: cryo-EM; iOC, Brf1 ZR and C34 WH1 disordered; 8.5 Å; EMD-7534; PIC assembled at room temperature; assembly buffer not given in the material; conditions: protein: native;recombinant;recombinant; tags: TAP tag on C53 C terminus (TEV-cleaved, calmodulin eluted);C-terminal 6xHis;C-terminal 6xHis; copies: 1;1;1;1;1;1;1;1;1;1;1;1;1;1;1;1;1;1;1; label: biotin 5' on strand 3; strand 1 fully paired; strands 2 and 3 both anneal to strand 1 (nick between them)
[4] = target: T1, RNA polymerase III (17 subunits, incl. …); experiment: cryo-EM; nOC, spontaneously melted; 4.8 Å; EMD-7532; PIC assembled at room temperature; assembly buffer not given in the material; conditions: protein: native;recombinant;recombinant; tags: TAP tag on C53 C terminus (TEV-cleaved, calmodulin eluted);C-terminal 6xHis;C-terminal 6xHis; copies: 1;1;1;1;1;1;1;1;1;1;1;1;1;1;1;1;1;1;1; label: biotin 5' on strand 3; strand 1 fully paired; strands 2 and 3 both anneal to strand 1 (nick between them)
[5] = target: T1, RNA polymerase III (17 subunits, incl. …); experiment: cryo-EM; OC; 4.1 Å; EMD-7531; PIC assembled at room temperature; assembly buffer not given in the material; conditions: protein: native;recombinant;recombinant; tags: TAP tag on C53 C terminus (TEV-cleaved, calmodulin eluted);C-terminal 6xHis;C-terminal 6xHis; copies: 1;1;1;1;1;1;1;1;1;1;1;1;1;1;1;1;1;1;1; label: biotin 5' on strand 3; 10-nt mismatched bubble; strands 2 and 3 both anneal to strand 1 (nick between them)
Bdp1 (B double prime) = target: T2, Bdp1 (B double prime) (Saccharomyces cerevisiae, UniProt P46678 1-594); experiment: cryo-EM structure; Pol III OC, 4.1 Å (TFIIIB 4.7 Å with soft mask): same assembly on the OC scaffold with a 10-nt mismatched bubble; conditions: both partners purified
T2 construct: Bdp1, S. cerevisiae, PCR amplified from genomic DNA; Cloned in pET21b(+) at SalI and NotI; The methods cite the purification of B''(138-594) only as the procedure followed; also called subunit of TFIIIB
T2 sequence: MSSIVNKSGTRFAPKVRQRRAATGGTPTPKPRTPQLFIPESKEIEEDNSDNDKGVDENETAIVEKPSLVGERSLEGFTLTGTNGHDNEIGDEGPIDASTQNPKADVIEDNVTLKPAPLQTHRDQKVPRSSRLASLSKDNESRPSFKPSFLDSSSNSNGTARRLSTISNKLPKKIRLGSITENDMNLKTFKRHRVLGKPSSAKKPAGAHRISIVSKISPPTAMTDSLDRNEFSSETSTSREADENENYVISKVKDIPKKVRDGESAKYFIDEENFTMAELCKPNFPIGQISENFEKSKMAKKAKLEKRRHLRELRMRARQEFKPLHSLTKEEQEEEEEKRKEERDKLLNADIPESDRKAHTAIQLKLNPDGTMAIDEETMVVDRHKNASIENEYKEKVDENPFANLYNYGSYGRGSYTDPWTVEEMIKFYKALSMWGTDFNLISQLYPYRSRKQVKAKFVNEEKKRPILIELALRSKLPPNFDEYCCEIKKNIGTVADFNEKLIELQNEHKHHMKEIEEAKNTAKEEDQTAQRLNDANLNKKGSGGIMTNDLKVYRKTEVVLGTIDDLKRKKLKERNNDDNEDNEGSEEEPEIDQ

Bdp1 Δ355–372 = target: T3, Bdp1 Δ355–372 (Saccharomyces cerevisiae, UniProt P46678 1-594, Δ355–372); experiment: cryo-EM structure; Pol III iOC (intermediate OC), about 8.5 Å (TFIIIB lobe 15-25 Å): assembly with Bdp1 Δ355–372 on the closed DNA scaffold, assembly buffer plus 60 mM KCl; map only, no model deposited; conditions: both partners purified
T3 construct: Same construct as m3 apart from the deletion; source: E. coli BL21 (DE3) pRARE, purified as the wild-type protein
T3 sequence (looked up): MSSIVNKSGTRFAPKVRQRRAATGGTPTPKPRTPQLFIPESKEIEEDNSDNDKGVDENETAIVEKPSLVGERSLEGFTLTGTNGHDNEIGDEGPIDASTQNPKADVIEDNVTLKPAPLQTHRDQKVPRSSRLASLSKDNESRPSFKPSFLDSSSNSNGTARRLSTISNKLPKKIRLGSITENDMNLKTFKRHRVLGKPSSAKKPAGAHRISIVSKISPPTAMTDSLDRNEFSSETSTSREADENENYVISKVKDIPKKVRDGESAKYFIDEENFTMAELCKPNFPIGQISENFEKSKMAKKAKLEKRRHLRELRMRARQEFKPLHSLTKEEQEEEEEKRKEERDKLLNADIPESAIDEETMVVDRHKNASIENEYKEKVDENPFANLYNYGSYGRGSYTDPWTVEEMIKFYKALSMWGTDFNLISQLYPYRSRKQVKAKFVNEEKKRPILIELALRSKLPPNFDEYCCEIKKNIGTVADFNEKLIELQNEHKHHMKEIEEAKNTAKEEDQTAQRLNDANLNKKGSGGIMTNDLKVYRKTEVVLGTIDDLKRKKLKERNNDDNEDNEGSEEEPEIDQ

B1: EC scaffold with 20-mer RNA (mixed)
DNA 1: ACGCCTTAACCAACTTGGCCATGGAGTCATTTTATCTTGTGTCACTTTTACAGAAAAAGTATTACTAATATATGTTGAAAAACTGGGGAATTCCATGGTCCGTA
DNA 2: TTCAACATATATTAGTAATACTTTTTCTGTAAAAGTGACACAAGATAAAAATTTTTTTTGTCCAAGTTGGTTAAGGCGT
DNA 3: TACGGACCATGGAATTCCCCAGT
RNA: UUUUUUUUUUUAGACUCCAU
binding result [1]: binds

B2: ITC scaffold with 6-mer RNA (mixed)
DNA 1: CAACTTGGCCATGGAGTCATTTTATCTTGTGTCACTTTTACAGAAAAAGTATTACTAATATATGTTGAAAAACTGGGGAATTCCATGGTCCGTA
DNA 2: TTTTCAACATATATTAGTAATACTTTTTCTGTATTTTTTTTTTTTTTTTAAATGACTCCATGGCCAAGTTG
DNA 3: TACGGACCATGGAATTCCCCAGT
?: ACAAGA
binding result [2]: binds

B3: CC (closed complex) scaffold (dsDNA)
DNA 1: CAACTTGGCCATGGAGTCATTTTATCTTGTGTCACTTTTACAGAAAAAGTATTACTAATATATGTTGAAAAACTGGGGAATTCCATGGTCCGTA
DNA 2: TTTTCAACATATATTAGTAATACTTTTTCTGTAAAAGTGACACAAGATAAAATGACTCCATGGCCAAGTTG
DNA 3: TACGGACCATGGAATTCCCCAGT
binding result [3]: binds
binding result [4]: binds

B4: OC (open complex) scaffold (dsDNA)
DNA 1: CAACTTGGCCATGGAGTCATTTTATCTTGTGTCACTTTTACAGAAAAAGTATTACTAATATATGTTGAAAAACTGGGGAATTCCATGGTCCGTA
DNA 2: TTTTCAACATATATTAGTAATACTTTTTCTGTATTTTTTTTTTAAGATAAAATGACTCCATGGCCAAGTTG
DNA 3: TACGGACCATGGAATTCCCCAGT
binding result [5]: binds

B5: chimera protein Brf1N-TBPc-Brf1C (other, Saccharomyces cerevisiae)
chain: MPVCKNCHGTEFERDLSNANNDLVCKACGVVSEDNPIVSEVTFGETSAGAAVVQGSFIGAGQSHAAFGGSSALESREATLNNARRKLRAVSYALHIPEYITDAAFQWYKLALANNFVQGRRSQNVIASCLYVACRKEKTHHMLIDFSSRLQVSVYSIGATFLKMVKKLHITELPLADPSLFIQHFAEKLDLADKKIKVVKDAVKLAQRMSKDWMFEGRRPAGIAGACILLACRMNNLRRTHTEIVAVSHVAEETLQQRLNEFKNTKAAKLSVQKFRENDVEDGEARPPSFVKNRKKERKIKDSLDKEEMFQTSEEALNKNPILTQVLGEQELSSKEVLFYLKQFSERRARVVERIKATNGIDGENIYHEGSENETRKRKLSEAMPWSGIVPTLQNIVATVTLGCRLDLKTVALHARNAEYNPKRFAAVIMRIREPKTTALIFASGKMVVTGAKSEDDSKLASRKYARIIQKIGFAAKFTDFKIQNIVGSCDVKFPIRLEGLAFSHGTFSSYEPELFPGLIYRMVKPKIVLLIFVSGKIVLTGAKQREEIYQAFEAIYPVLSEFRKMGSGSGSGSGSGSPRNLHLLPTTDTYLSKVSDDPDNLEDVDDEELNAHLLNEEASKLKERIWIGLNADFLLEQESKRLKQEADIATGNTSVKKKRTRRRNNTRSDEPTKTVDAAAAIGLMSDLQDKSGLHAALKAAEESGDFTTADSVKNMLQKASFSKKINYDAIDGLFR
notes: Brf1 (TFIIB-related factor), S. cerevisiae, N-terminal part up to residue 382 (residues 383-438 of Brf1 were replaced by TBPc); linker between Brf1 residue 382 and TBP residue 61; linker between TBP residue 240 and Brf1 residue 439; Brf1, S. cerevisiae, C-terminal part from residue 439 to the end of full-length Brf1; Cloned in pET21b(+) at SalI and NotI; The printed offset (632-649 in the chimera …)
binding result (Bdp1 (B double prime)): binds
binding result (Bdp1 Δ355–372): binds

B6: C34 subunit of Pol III (natural protein, Saccharomyces cerevisiae, UniProt P32910 1-317, looked up)
chain: MSGMIENGLQLSDNAKTLHSQMMSKGIGALFTQQELQKQMGIGSLTDLMSIVQELLDKNLIKLVKQNDELKFQGVLESEAQKKATMSAEEALVYSYIEASGREGIWSKTIKARTNLHQHVVLKCLKSLESQRYVKSVKSVKFPTRKIYMLYSLQPSVDITGGPWFTDGELDIEFINSLLTIVWRFISENTFPNGFKNFENGPKKNVFYAPNVKNYSTTQEILEFITAAQVANVELTPSNIRSLCEVLVYDDKLEKVTHDCYRVTLESILQMNQGEGEPEAGNKALEDEEEFSIFNYFKMFPASKHDKEVVYFDEWTI
notes: C34, subunit of the Pol III-specific heterotrimer C82/34/31, S. cerevisiae; WH1 residues 10-77, WH2 residues 78-158; Stood in the assay as a subunit of the whole Pol III; source: endogenous, purified from S. cerevisiae as a subunit of Pol III (TAP tag on C53)
binding result (Bdp1 (B double prime)): binds

B7: TATA box-binding protein (TBP) core domain, the TBPc part of the chimera Brf1N-TBPc-Brf1C (domain or fragment, Saccharomyces cerevisiae, UniProt P13393 61-240, looked up)
chain: SGIVPTLQNIVATVTLGCRLDLKTVALHARNAEYNPKRFAAVIMRIREPKTTALIFASGKMVVTGAKSEDDSKLASRKYARIIQKIGFAAKFTDFKIQNIVGSCDVKFPIRLEGLAFSHGTFSSYEPELFPGLIYRMVKPKIVLLIFVSGKIVLTGAKQREEIYQAFEAIYPVLSEFRKM
notes: TBP, S. cerevisiae, core domain residues 61-240; In the assay TBPc stood inside the chain of the chimera m2, between Brf1 1-382 and Brf1 439-end; this molecule is made only for the rows of TBP with Brf1 and Bdp1; source: E. coli BL21 (DE3) pRARE, purified, as part of the chimera m2
binding result (Bdp1 (B double prime)): binds
